One molecule from patent publication US20050013803A1 (published 2005) can be followed below.

Experiment in all cases: co-immunoprecipitation with anti-Taz antibody from infected BMK cells, Western blot
For orientation: A western blot detects proteins with antibodies after separation by electrophoresis.

Assay [1] addresses T1, polyoma virus small T antigen, wild-type (murine polyoma virus).
T1 construct: also called sT

The target in assay [2] is T2, polyoma virus large T antigen, wild-type (strain PTA), full length (murine polyoma virus, strain PTA).
T2 construct: mature; also called normal large T antigen; WT large T antigen
T2 sequence (P0DOJ5 whole entry): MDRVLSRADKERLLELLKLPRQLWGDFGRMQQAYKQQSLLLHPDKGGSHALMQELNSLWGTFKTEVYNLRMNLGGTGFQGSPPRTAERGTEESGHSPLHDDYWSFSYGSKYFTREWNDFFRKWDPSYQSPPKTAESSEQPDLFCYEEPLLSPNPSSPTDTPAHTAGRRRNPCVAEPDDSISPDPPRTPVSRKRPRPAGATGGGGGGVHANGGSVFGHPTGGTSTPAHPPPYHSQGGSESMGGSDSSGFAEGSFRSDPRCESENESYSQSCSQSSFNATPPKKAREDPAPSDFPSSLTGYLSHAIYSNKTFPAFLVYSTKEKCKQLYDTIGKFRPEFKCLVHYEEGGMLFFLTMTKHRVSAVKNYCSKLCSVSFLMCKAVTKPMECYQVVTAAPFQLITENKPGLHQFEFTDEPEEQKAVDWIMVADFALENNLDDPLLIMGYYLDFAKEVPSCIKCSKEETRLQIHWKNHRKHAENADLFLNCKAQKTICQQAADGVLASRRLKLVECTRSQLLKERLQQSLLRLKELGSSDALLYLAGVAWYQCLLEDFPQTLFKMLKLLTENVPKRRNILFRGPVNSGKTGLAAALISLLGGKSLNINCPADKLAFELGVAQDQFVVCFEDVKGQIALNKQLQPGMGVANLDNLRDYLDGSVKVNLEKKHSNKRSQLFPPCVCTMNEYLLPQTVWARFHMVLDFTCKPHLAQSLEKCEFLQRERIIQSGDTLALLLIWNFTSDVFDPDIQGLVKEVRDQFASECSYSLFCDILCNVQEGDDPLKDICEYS

The target in assay [3] is T3, polyoma virus middle T antigen, wild-type (murine polyoma virus).
T3 construct: also called mT
T3 sequence (P0DOJ8 whole entry): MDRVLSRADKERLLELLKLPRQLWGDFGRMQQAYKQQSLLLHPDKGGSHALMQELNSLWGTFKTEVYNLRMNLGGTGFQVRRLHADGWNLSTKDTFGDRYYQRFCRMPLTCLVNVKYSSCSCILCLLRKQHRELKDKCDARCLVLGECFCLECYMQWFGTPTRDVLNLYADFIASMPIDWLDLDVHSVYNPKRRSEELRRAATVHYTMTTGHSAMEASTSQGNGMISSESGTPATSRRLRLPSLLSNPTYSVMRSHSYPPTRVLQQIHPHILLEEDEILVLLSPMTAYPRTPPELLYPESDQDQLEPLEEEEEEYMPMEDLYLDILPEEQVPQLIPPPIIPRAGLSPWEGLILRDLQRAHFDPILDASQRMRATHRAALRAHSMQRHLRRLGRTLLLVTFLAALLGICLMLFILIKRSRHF

T1 sequence (P68834 whole entry): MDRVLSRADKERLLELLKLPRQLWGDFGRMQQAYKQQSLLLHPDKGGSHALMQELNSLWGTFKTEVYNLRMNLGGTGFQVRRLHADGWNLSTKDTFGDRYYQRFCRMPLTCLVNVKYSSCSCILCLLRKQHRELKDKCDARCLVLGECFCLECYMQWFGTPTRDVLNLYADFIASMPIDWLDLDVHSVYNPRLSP

B1: murine Taz (transcriptional co-activator with PDZ binding motif) (other, mouse, UniProt Q9EPK5 1-395, looked up)
chain: MNPSSVPHPLPPPGQQVIHVTQDLDTDLEALFNSVMNPKPSSWRKKILPESFFKEPDSGSHSRQSSTDSSGGHPGPRLAGGAQHVRSHSSPASLQLGTGAGAAGGPAQQHAHLRQQSYDVTDELPLPPGWEMTFTATGQRYFLNHIEKITTWQDPRKVMNQPLNHVNLHPSITSTSVPQRSMAVSQPNLAMNHQHQQVVATSLSPQNHPTQNQPTGLMSVPNALTTQQQQQQKLRLQRIQMERERIRMRQEELMRQEAALCRQLPMETETMAPVNTPAMSTDMRSVTNSSSDPFLNGGPYHSREQSTDSGLGLGCYSVPTTPEDFLSNMDEMDTGENSGQTPMTVNPQQTRFPDFLDCLPGTNVDLGTLESEDLIPLFNDVESALNKSEPFLTWL
notes: Endogenous protein immunoprecipitated from mouse cell extracts, or a library clone in yeast; also called mTaz
Regarding B1, the relative binding efficiency in assay [1] was 100 ratio large T: middle T: small T; in assay [2] it was 1 ratio large T: middle T: small T; in assay [3], 7 ratio large T: middle T: small T.
